Data from patent US20200392203A1 (YEDA RESEARCH AND DEVELOPMENT, published 2020).

T1: native spike complex (glycoprotein complex, GPC) of Machupo virus (MACV) (Machupo virus (MACV), UniProt Q6IUF7 2-496)
T1 sequence: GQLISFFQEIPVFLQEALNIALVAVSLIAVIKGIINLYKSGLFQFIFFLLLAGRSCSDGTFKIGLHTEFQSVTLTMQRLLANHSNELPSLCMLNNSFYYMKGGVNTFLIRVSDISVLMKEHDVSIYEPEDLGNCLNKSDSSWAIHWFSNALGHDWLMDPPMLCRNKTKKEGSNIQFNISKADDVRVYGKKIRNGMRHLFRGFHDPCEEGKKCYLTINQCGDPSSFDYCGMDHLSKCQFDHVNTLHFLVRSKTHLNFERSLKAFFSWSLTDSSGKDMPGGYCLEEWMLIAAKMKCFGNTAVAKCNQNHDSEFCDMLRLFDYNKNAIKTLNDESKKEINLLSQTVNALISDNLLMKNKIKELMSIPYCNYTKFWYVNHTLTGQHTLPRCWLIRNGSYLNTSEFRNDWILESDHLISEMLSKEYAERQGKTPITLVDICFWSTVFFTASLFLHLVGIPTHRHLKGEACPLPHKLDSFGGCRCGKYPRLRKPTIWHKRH


Columns and labels:
[1] = target: native spike complex (glycoprotein complex, GPC) of Junin virus (JUNV) (Junin virus (JUNV)); assay: cell-based or functional assay
[2] = target: native spike complex (glycoprotein complex, GPC) of Sabia virus (SABV) (Sabia virus (SABV)); assay: cell-based or functional assay
[3] = target: T1, native spike complex (glycoprotein …); assay: cell-based or functional assay
[4] = target: GP1JUNV-Fc (GP1 domain of Junin virus fused at its C' terminus to an antibody Fc portion) (Junin virus (JUNV)); assay: SPR (Biacore T200), single cycle kinetics; […]; 1:1 model
[5] = target: GP1MACV-Fc (GP1 domain of Machupo virus fused at its C' terminus to an antibody Fc portion) (Machupo virus (MACV)) (UniProt Q6IUF7); assay: as above
[6] = target: GP1SBOV-Fc (GP1 domain of Sabia virus fused at its C' terminus to an antibody Fc portion) (Sabia virus (SABV)); assay: SPR (Biacore T200), single-cycle kinetics; […]; 1:1 model fit

Row | Molecule | IC50 values (µg/ml), neutralization of pseudotyped virus [1] [µg/mL] | IC50 values (µg/ml), neutralization of pseudotyped virus [2] [µg/mL] | pseudovirus neutralisation, IC50 (read off the curve) [3] [nM] | Kd [4] [nM] | Kd [5] [nM] | Kd [6] [nM]
1 | Arenacept (sAD fused at its C'-terminus to an Fc portion of IgG1) (Fc fusion) | 2.4 | 3.5 |  |  |  | 
2 | soluble apical domain (sAD) of Neotoma albigula (White-throated woodrat) TfR1 (receptor) GSKIQVKCSAPNSVTITNASGGLYLVEYPEGYVAYSKATEVTGKLVHANFGTKKDFEDLDYAVNGSIVIVRAGKITIAEKVANAQSFNAIGVLIYKDRTKYPISRADEPLQGHSGLPSIPVQTISREAAEKLFQNMERDCPRSWNTDSSCKLELLQNRNVKLTVNNCLKE |  |  | ~10 | 1000 | 4 | 63
